Several values for one entry are separate records, joined by “and”; a condition that tells them apart may be missing. Equal values may be shown once.
Columns and labels:
[1] = molecular target: the molecule itself; experiment: cross-linking; purified CERT (10.8 ng in 30 μL of 50 mM HEPES-NaOH pH 7.4) with EGS (0.1-1.6 mM) on ice for 2 h; SDS-PAGE (6%) and anti-HA western blot
[2] = molecular target: the molecule itself; experiment: native gel or EMSA; blue native PAGE of purified CERT (10 ng), 1% digitonin, 0.25% CBB G-250, 4-16% Bis-Tris gel; anti-HA western blot

B1: Recombinant human CERT S132A/13A purified from Sf21 cells (natural protein, UniProt Q9Y5P4-2 1-598, looked up)
chain: MSDNQSWNSSGSEEDPETESGPPVERCGVLSKWTNYIHGWQDRWVVLKNNALSYYKSEDETEYGCRGSICLSKAVITPHDFDECRFDISVNDSVWYLRAQDPDHRQQWIDAIEQHKTESGYGSESSLRRHGAMVSLVSGASGYSATSTSSFKKGHSLREKLAEMETFRDILCRQVDTLQKYFDACADAVSKDELQRDKVVEDDEDDFPTTRSDGDFLHSTNGNKEKLFPHVTPKGINGIDFKGEAITFKATTAGILATLSHCIELMVAAEDSWQAALDAETEAAAATEEAYANAMTELAAASHFGGPDYEEGPNSLINEEEFFDAVEAALDRQDKIEEQSQSEKVRLHWPTSLPSGDAFSSVGTHRFVQKVEEMVQNHMTYSLQDVGGDANWQLVVEEGEMKVYRREVEENGIVLDPLKATHAVKGVTGHEVCNYFWNVDVRNDWETTIENFHVVETLADNAIIIYQTHKRVWPASQRDVLYLSVIRKIPALTENDPETWIVCNFSVDHDSAPLNNRCVRAKINVAMICQTLVSPPEGNQEISRDNILCKITYVANVNPGGWAPASVLRAVAKREYPKFLKRFTSYVQEKTAGKPILF
notes: Ceramide transport protein CERT (GPBPΔ26), human, printed length 598 amino acids; The template plasmid is named pBS/nHAcFL-CERT, which may mean a further C-terminal FLAG tag; also called S132/13A; not shown: HA, N-terminal, kept
With B1 the “stoichiometry N” value [1] was 2 and 3.

B2: Recombinant human CERT S132A purified from Sf21 cells (natural protein, UniProt Q9Y5P4-2 1-598, looked up)
chain: MSDNQSWNSSGSEEDPETESGPPVERCGVLSKWTNYIHGWQDRWVVLKNNALSYYKSEDETEYGCRGSICLSKAVITPHDFDECRFDISVNDSVWYLRAQDPDHRQQWIDAIEQHKTESGYGSESSLRRHGAMVSLVSGASGYSATSTSSFKKGHSLREKLAEMETFRDILCRQVDTLQKYFDACADAVSKDELQRDKVVEDDEDDFPTTRSDGDFLHSTNGNKEKLFPHVTPKGINGIDFKGEAITFKATTAGILATLSHCIELMVKREDSWQKRLDKETEKKRRTEEAYKNAMTELKKKSHFGGPDYEEGPNSLINEEEFFDAVEAALDRQDKIEEQSQSEKVRLHWPTSLPSGDAFSSVGTHRFVQKVEEMVQNHMTYSLQDVGGDANWQLVVEEGEMKVYRREVEENGIVLDPLKATHAVKGVTGHEVCNYFWNVDVRNDWETTIENFHVVETLADNAIIIYQTHKRVWPASQRDVLYLSVIRKIPALTENDPETWIVCNFSVDHDSAPLNNRCVRAKINVAMICQTLVSPPEGNQEISRDNILCKITYVANVNPGGWAPASVLRAVAKREYPKFLKRFTSYVQEKTAGKPILF
notes: Ceramide transport protein CERT (GPBPΔ26), human, printed length 598 amino acids; The template plasmid is named pBS/nHAcFL-CERT, which may mean a further C-terminal FLAG tag; Mainly a homo-trimer by cross-linking and blue native PAGE; not shown: HA, N-terminal, kept
B2 was tested, and the “stoichiometry N” value [2] was 3.

From paper PMC9368931, “Involvement of a Cluster of Basic Amino Acids in Phosphorylation-Dependent Functional Repression of the Ceramide Transport Protein CERT” (International Journal of Molecular Sciences, 2022)
